Reference: patent US20100298612

How the values were obtained:
[1] = biological target: T1, Mycobacterium sp. (strain JLS) carboxylic acid reductase (CAR)
T1 chain: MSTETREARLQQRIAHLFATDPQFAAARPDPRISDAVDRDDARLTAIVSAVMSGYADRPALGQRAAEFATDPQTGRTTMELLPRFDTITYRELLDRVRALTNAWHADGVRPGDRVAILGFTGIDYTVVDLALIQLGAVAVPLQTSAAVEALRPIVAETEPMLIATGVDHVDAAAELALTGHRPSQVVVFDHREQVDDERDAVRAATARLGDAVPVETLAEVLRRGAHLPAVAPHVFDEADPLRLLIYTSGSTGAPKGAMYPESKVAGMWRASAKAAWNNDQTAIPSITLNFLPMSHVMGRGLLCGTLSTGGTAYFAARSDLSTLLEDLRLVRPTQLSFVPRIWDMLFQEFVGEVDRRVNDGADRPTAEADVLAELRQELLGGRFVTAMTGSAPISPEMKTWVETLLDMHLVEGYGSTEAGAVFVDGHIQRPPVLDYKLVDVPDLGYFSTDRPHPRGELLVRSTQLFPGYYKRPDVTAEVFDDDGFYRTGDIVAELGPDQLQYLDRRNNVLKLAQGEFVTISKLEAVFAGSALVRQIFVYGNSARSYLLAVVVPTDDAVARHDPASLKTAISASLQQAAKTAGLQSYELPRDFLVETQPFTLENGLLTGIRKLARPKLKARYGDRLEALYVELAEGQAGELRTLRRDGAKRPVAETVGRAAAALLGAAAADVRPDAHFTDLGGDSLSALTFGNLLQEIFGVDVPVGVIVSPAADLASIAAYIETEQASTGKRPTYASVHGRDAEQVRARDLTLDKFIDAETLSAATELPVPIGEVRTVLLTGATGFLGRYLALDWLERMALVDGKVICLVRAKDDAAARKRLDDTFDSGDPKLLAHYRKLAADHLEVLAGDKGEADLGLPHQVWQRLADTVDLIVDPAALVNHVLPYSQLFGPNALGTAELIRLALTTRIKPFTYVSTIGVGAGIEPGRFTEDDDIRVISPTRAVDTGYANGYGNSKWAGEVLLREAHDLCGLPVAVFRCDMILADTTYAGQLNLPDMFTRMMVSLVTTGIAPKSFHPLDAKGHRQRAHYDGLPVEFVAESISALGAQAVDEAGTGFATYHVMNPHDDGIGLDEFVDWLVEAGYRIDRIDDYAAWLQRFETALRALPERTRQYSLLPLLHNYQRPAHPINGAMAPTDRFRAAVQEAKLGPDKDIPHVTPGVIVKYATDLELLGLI

[2] = biological target: T2, Nocardia NRRL5646 carboxylic acid reductase (CAR)
T2 chain: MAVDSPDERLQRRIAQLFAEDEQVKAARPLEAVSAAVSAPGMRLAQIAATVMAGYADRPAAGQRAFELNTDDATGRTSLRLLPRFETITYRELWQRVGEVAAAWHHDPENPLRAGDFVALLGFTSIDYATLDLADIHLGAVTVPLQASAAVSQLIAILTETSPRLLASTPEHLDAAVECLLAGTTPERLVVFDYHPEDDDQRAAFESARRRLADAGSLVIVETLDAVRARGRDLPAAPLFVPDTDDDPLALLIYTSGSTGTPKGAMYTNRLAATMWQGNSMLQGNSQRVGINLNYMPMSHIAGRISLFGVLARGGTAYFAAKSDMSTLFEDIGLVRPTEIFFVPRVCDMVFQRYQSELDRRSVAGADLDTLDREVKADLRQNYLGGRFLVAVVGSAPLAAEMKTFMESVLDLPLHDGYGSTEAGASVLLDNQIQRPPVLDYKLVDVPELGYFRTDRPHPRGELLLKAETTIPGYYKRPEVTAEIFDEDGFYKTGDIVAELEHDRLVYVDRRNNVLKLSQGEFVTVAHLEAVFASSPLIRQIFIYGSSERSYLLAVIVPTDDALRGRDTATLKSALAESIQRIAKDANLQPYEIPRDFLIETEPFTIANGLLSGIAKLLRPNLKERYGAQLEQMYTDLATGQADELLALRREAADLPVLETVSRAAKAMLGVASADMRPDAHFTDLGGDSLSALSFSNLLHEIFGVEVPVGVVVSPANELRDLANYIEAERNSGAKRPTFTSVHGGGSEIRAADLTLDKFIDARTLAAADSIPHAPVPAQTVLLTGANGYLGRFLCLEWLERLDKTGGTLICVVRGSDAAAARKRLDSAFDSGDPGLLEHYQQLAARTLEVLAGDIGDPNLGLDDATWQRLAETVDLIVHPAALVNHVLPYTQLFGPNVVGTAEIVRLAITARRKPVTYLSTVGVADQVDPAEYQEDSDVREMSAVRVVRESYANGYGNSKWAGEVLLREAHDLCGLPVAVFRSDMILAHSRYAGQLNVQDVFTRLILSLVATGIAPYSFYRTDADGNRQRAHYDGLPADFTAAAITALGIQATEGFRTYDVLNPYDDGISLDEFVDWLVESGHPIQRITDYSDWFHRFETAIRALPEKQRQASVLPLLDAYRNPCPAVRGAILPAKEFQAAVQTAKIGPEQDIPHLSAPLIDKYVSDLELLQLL

B1: Nocardia NRRL 5646 phosphopantetheinyl transferase (PPTase) (protein)
chain: MIETILPAGVESAELLEYPEDLKAHPAEEHLIAKSVEKRRRDFIGARHCARLALAELGEPPVAIGKGERGAPIWPRGVVGSLTHCDGYRAAAVAHKMRFRSIGIDAEPHATLPEGVLDSVSLPPEREWLKTTDSALHLDRLLFCAKEATYKAWWPLTARWLGFEEAHITFEIEDGSADSGNGTFHSELLVPGQTNDGGTPLLSFDGRWLIADGFILTAIAYA
In the case of B1, the “CAR activity (in vitro conversion of hexadecanoic acid to 1-hexadecanol; Y. lipolytica CAR lysate pre-incubated with E. coli Nocardia PPTase lysate), fold improvement” value [1] is reported as “by 9-20 times” and the “CAR activity (in vitro conversion of hexadecanoic acid to 1-hexadecanol; Y. lipolytica CAR lysate pre-incubated with E. coli Nocardia PPTase lysate), fold improvement” value [2] is reported as “by 3-5 times”.
